These results are taken from paper PMC12394548.

The target in the experiment is valosin-containing protein (VCP)/p97 (UniProt P55072).
Sequence of valosin-containing protein (VCP)/p97 (P55072 whole entry): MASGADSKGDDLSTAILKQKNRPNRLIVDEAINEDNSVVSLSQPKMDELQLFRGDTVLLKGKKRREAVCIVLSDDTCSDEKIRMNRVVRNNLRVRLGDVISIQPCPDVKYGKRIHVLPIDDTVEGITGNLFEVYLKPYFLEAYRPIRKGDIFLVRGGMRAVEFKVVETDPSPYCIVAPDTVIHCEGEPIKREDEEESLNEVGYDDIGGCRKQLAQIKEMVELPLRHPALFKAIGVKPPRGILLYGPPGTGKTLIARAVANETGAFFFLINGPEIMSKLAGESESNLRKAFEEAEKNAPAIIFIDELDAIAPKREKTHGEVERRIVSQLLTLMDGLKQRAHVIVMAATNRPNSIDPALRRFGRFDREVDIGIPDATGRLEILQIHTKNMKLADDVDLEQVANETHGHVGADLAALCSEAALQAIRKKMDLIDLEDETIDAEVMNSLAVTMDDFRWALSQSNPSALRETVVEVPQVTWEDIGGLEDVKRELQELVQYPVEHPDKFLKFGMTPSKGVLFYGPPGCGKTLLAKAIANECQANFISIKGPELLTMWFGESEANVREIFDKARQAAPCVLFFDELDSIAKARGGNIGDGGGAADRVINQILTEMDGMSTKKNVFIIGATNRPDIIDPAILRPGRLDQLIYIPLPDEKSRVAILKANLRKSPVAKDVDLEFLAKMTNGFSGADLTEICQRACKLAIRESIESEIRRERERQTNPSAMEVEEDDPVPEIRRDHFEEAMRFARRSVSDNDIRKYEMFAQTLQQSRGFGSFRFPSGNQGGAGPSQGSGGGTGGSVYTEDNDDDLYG

B1: VCPIP1^(ΔVCPID ΔUBX) (aa Δ589-666, Δ773-852) (enzyme)
chain: MSQPPPPPPPLPPPPPPPEAPQTPSSLASAAASGGLLKRRDRRILSGSCPDPKCQARLFFPASGSVSIECTECGQRHEQQQLLGVEEVTDPDVVLHNLLRNALLGVTGAPKKNTELVKVMGLSNYHCKLLSPILARYGMDKQTGRAKLLRDMNQGELFDCALLGDRAFLIEPEHVNTVGYGKDRSGSLLYLHDTLEDIKRANKSQECLIPVHVDGDGHCLVHAVSRALVGRELFWHALRENLKQHFQQHLARYQALFHDFIDAAEWEDIINECDPLFVPPEGVPLGLRNIHIFGLANVLHRPIILLDSLSGMRSSGDYSATFLPGLIPAEKCTGKDGHLNKPICIAWSSSGRNHYIPLVGIKGAALPKLPMNLLPKAWGVPQDLIKKYIKLEEDGGCVIGGDRSLQDKYLLRLVAAMEEVFMDKHGIHPSLVADVHQYFYRRTGVIGVQPEEVTAAAKKAVMDNRLHKCLLCGALSELHVPPEWLAPGGKLYNLAKSTHGQLRTDKNYSFPLNNLVCSYDSVKDVLVPDYGMSNLTACNWCHGTSVRKVRGDGSIVYLDGDRTNSRSTGGKCGCGFKHFWDGKEYDNLNIDGAHAQRVGDVQGQESESQLPTKIILTGQKTKTLHKEELNMSKTERTIQQNITEQASVMQKRKTEKLKQEQKGQPRTVSPSTIRDGPSSAPATPTKAPYSPTTSSKAEGGQSAAAHSAHTVKQEDIAVTGKLSSKELQEQAEKEMYSLCLLATLMGEDVWSYAKGLPHMFQQGGVFYSIMKKTMGMADGKHCTFPHLPGKTFVYNASEDRLELCVDAAGHFPIGPDVEDLVKEAVSQVRAEATTRSRESSPSHGLLKLGSGGVVKKKSEQLHNVTAFQGKGHSLGTASGNPHLDPRARETSVVRKHNTGTDFSNSSTKTEPSVFTASSSNSELIRIAPGVVTMRDGRQLDPDLVEAQRKKLQEMVSSIQASMDRHLRDQSTEQSPSDLPQRKTEVVSSSAKSGSLQTGLPESFPLTGGTENLNTETTDGCVADALGAAFATRSKAQRGNSVEELEEMDSQDAEMTNTTEPMDHS
modifications: BODIPY, non-site-selective labelling, DOL 0.44, in the TR-FRET binding assay
Consider B1, for which the initial velocity of Ub-Rho hydrolysis by VCPIP1^(ΔVCPID ΔUBX) (62.5 nM enzyme) in the presence of VCP (v0 = 656.0 RFU/min without VCP); no effect of VCP is 562 RFU/min.

B2: VCPIP1^ΔUBX (aa Δ773-852) (enzyme)
chain: MSQPPPPPPPLPPPPPPPEAPQTPSSLASAAASGGLLKRRDRRILSGSCPDPKCQARLFFPASGSVSIECTECGQRHEQQQLLGVEEVTDPDVVLHNLLRNALLGVTGAPKKNTELVKVMGLSNYHCKLLSPILARYGMDKQTGRAKLLRDMNQGELFDCALLGDRAFLIEPEHVNTVGYGKDRSGSLLYLHDTLEDIKRANKSQECLIPVHVDGDGHCLVHAVSRALVGRELFWHALRENLKQHFQQHLARYQALFHDFIDAAEWEDIINECDPLFVPPEGVPLGLRNIHIFGLANVLHRPIILLDSLSGMRSSGDYSATFLPGLIPAEKCTGKDGHLNKPICIAWSSSGRNHYIPLVGIKGAALPKLPMNLLPKAWGVPQDLIKKYIKLEEDGGCVIGGDRSLQDKYLLRLVAAMEEVFMDKHGIHPSLVADVHQYFYRRTGVIGVQPEEVTAAAKKAVMDNRLHKCLLCGALSELHVPPEWLAPGGKLYNLAKSTHGQLRTDKNYSFPLNNLVCSYDSVKDVLVPDYGMSNLTACNWCHGTSVRKVRGDGSIVYLDGDRTNSRSTGGKCGCGFKHFWDGKEYDNLPEAFPITLEWGGRVVRETVYWFQYESDSSLNSNVYDVAMKLVTKHFPGEFGSEILVQKVVHTILHQTAKKNPDDYTPVNIDGAHAQRVGDVQGQESESQLPTKIILTGQKTKTLHKEELNMSKTERTIQQNITEQASVMQKRKTEKLKQEQKGQPRTVSPSTIRDGPSSAPATPTKAPYSPTTSSKAEGGQSAAAHSAHTVKQEDIAVTGKLSSKELQEQAEKEMYSLCLLATLMGEDVWSYAKGLPHMFQQGGVFYSIMKKTMGMADGKHCTFPHLPGKTFVYNASEDRLELCVDAAGHFPIGPDVEDLVKEAVSQVRAEATTRSRESSPSHGLLKLGSGGVVKKKSEQLHNVTAFQGKGHSLGTASGNPHLDPRARETSVVRKHNTGTDFSNSSTKTEPSVFTASSSNSELIRIAPGVVTMRDGRQLDPDLVEAQRKKLQEMVSSIQASMDRHLRDQSTEQSPSDLPQRKTEVVSSSAKSGSLQTGLPESFPLTGGTENLNTETTDGCVADALGAAFATRSKAQRGNSVEELEEMDSQDAEMTNTTEPMDHS
modifications: BODIPY, non-site-selective labelling, DOL 0.54, in the TR-FRET binding assay
As for B2, the initial velocity of Ub-Rho hydrolysis by VCPIP1^ΔUBX (62.5 nM enzyme) in the presence of VCP (v0 = 754.0 RFU/min without VCP); no effect of VCP stood at 733 RFU/min.
